{"source": "patent US20230331827A1", "about": "“POTASSIUM CHANNEL INHIBITORS” (priority 2017, published 2023)", "key": {"trypsin [1]": {"tested_on": "trypsin", "assay": "KnotBody Fab TRF binding assay on biotinylated trypsin", "procedure": "In order to confirm the trypsin binding ability of KnotBodies in Fab format, purified proteins were tested for binding to trypsin using a TRF binding assay. In this assay binding of KnotBody Fabs ([…]) to biotinylated trypsin (immobilised on streptavidin coated Maxisorp™ plates) was detected using a mouse anti-CH1 antibody followed by a europium conjugated anti-mouse antibody (Table 4). 7 KnotBodies (KB_A04, KB_A01, KB_A05, KB_A07, KB_A08, KB_A10, KB_A12) were chosen for crystallisation. DNA prepared for these clones were transfected into 500 ml HEK-293F cells as described before. Expressed proteins were purified using CaptureSelect IgG-CH1 affinity matrix. Purified proteins were initially subjected to crystallisation trials using commercially available crystallisation screens (Supplier). Well-defined crystals were readily obtained for KB_A12 and KB_A05. Crystallisation conditions for these two clones were further optimised and the following condition was used to generate diffraction quality crystals: 0.1 M MES pH=6.5, 25 %w/v PEG MME 2000 and 0.1 M Tris.Cl, 50% PEG MME, 10 mM NiCl2. Complete diffraction data was collected on these crystals at 100 K under liquid nitrogen stream. Collected data was processed using PROTEUM2 software (Bruker). The crystal structure of the knottin-fused Fab antibodies was resolved using molecular replacement technique^109 using Phenix software v 1.8.1-1168^110. Resulting structure was further refined using Phenix.Refine^111. The templates for molecular replacement were downloaded from PDB website (www.rcsb.org/pdb, PDB codes: 3G04 for light chain and 3QOS for heavy chain). KnotBody KB_A12 and KB_A05 sequences are given below. An additional AlaSer sequence is introduced at the N terminus of the light chain from the Nhe1 site used in cloning.\nIn order to compare the performance of the KnotBodies with short and long linkers, purified Fabs were tested for binding to trypsin by ELISA. In this assay binding of KnotBody Fabs (at 0.5 µg/ml) to biotinylated trypsin (5 µg/ml immobilised on streptavidin coated Maxisorp™ plates) was detected using a mouse anti-CH1 antibody (Hybridoma Reagent Laboratories) followed by a europium conjugated anti-mouse antibody (Perkin Elmer, Cat. No. AD0124). The trypsin binding capability of KB_A07 and KB_A12 KnotBodies were greatly diminished when the short selected linkers were replaced with long and flexible linkers (FIG. 22)."}, "trypsin [2]": {"tested_on": "trypsin", "assay": "Phage TRF binding assay on immobilised biotinylated trypsin (monoclonal phage ELISA)", "procedure": "Phage display technology facilitates isolation of binders to any given target from large combinatorial repertoires based on proteins and peptides that can be presented on the surface of filamentous phage^105. In order to isolate functional knottin-antibody fusions from the KnotBody libraries multiple rounds of phage display selections on trypsin (cognate antigen for the EETI-II donor) were carried out. Phage particles were prepared by rescuing KnotBody libraries using trypsin cleavable helper phage ^102,106Two rounds of phage display selections were performed on 10 µg/ml biotinylated trypsin immobilised on Streptavidin (for Round-1) or Neutravidin (for round-2) coated Maxisorp™ immunotubes (Thermo Scientific, Cat No. 444202). In both rounds of selection, phage libraries were pre-incubated with streptavidin coated paramagnetic beads (Thermo Fisher Scientific, Cat. No. 11205D). These beads were removed prior to the addition the phage to the antigen tubes to limit the streptavidin binders entering the selection. Polyclonal phage preparations from round-2 selection outputs were analysed for trypsin binding using a time resolved fluorescence (TRF) binding assay. In this assay, polyclonal phage binding to biotinylated trypsin immobilised on neutravidin (Thermo Fisher Scientific, Cat. No 31000) coated Maxisorp™ plates (Thermo Scientific, Cat. No. 437111) was detected using a mouse anti-M13 antibody (GE Healthcare, Cat. No. 27-9420-01) followed by europium conjugated anti-mouse antibody (Perkin Elmer, Cat. No. AD0124).\nIn order to identify monoclonal KnotBodies with desired binding characteristics, 94 individual clones derived from 2 rounds of selection using EETI-II CDR1 or CDR2 libraries were picked into 96 well culture plates and phage were prepared from each clone. Methods for screening by monoclonal phage ELISA are known in the art^107. […] Clones with >3x binding signal above background were picked as positive clones and sequenced to identify unique clones. 14 and 42 unique binders were identified from EETI-II CDR1 and EETI-II CDR2 libraries respectively (Table 1). 18 binders from the EETI-II CDR2 library and 3 binders from the EETI-II-CDR1 library were chosen for further characterisation based on their VL and linker sequence diversity. These binders were assigned new clone identification numbers (Table 2).\nThe trypsin binding capability of EETI-II is attributed to proline (Pro3) and arginine (Arg4) residues present in its loop1 (GCPRILMRC; SEQ ID NO: 68). […] Monoclonal phage was prepared from the 21 selected clones and their mutant equivalents. […] Replacement of the trypsin-binding residues of EETI-II abolished the ability of all KnotBody clones to bind to trypsin (Table 3). In order to confirm that the loss of trypsin binding was not due to reduced expression or display of pIII fusion phage was prepared from 11 (randomly chosen) KnotBodies and their GlyAla variants were analysed on a western blot using an antibody which recognises the product of gene 3 (pIII) using an anti-pIII antibody (MoBiTec GmbH) (FIG. 6).\nBovine antibodies have been described with natural ultra-long VH CDR3s containing a solvent exposed double stranded antiparallel sheet approximately 20 A° in length (referred to as the stalk) presenting a folded domain stabilised by 3 disulfide bonds (referred to as the Knob)^10. Zhang and colleagues have shown that the Knob domains of these cow ultra-long VH CDR3 antibodies (ULVC-Ab) can be replaced with other folded proteins such as erythropoietin^13. In this example, we assess the ability of a cow ULVC-Ab to present functional knottin fusions on phage in comparison with a KnotBody. In order to create a Knottin-cow UCLA fusion, the sequence between the first and the last cysteines of the knob region of the Cow ULVC-Ab BLV1H12 was replaced with the sequence of the trypsin binding knottin; EETI-II (EETI-II cow ULVC-Ab). A gene fragment encoding this construct was synthesised (Integrated DNA technologies, Table 21). […]"}}}
{"molecule": "KB_A05: EETI-II knottin fused into VL CDR2, D1A12 VH; trypsin binder (antibody, KB_A05 Heavy chain; KB_A05 Light chain) heavy: EVQLVESGGGLVRPGGSLRLSCAASGFTFSSYAMSWVRQAPGKGLEWVSAISGSGGSTYYADSVKGRFTISRDNTKNSLYLQMTSLRADDTAFYYCVDFGPGYGTGWFDYWGPGTLVTVSSASTKGPSVFPLAPSSKSTSGGTAALGCLVKDYFPEPVTVSWNSGALTSGVHTFPAVLQSSGLYSLSSVVTVPSSSLGTQTYICNVNHKPSNTKVDKKVEPKSC light: QSVLTQPPSVSEAPRQRVTITCSGSSSNIGNNAVNWYQQLPGKAPKLLIYAADKCPRILMRCKQDSDCLAGCVCGPNGFCGGGSGIPERFSGSKSGTSASLAISGLRSEDEADYYCATWDDNLNGVVFGGGTKLTVLGQPAAAPSVTLFPPSSEELQANKATLVCLISDFYPGAVTVAWKADSSPVKAGVETTTPSKQSNNKYAASSYLSLTPEQWKSHKSYSCQVTHEGSTVEKTVAPTECS", "values": [{"measurement": "TRF signal for 0.6 ug/mL Fab", "setting": "trypsin [1]; Fab 0.6 ug/mL", "result": 46706}, {"measurement": "TRF signal for 2.4 ug/mL Fab", "setting": "trypsin [1]; Fab 2.4 ug/mL", "result": 65386}, {"measurement": "TRF signal for 10 ug/mL Fab", "setting": "trypsin [1]; Fab 10 ug/mL", "result": 217918}, {"measurement": "% reduction in binding signal", "setting": "trypsin [2]; GlyAla mutant (Pro3, Arg4 of EETI-II substituted) versus the clone, monoclonal phage", "result": 100, "unit": "%"}, {"measurement": "Tryspin binding signal (FU)", "setting": "trypsin [2]; monoclonal phage supernatant, biotinylated trypsin on neutravidin plates", "result": 121458, "unit": "FU"}]}
